Experimental data as given in PMC4230323 (Biochemistry, 2014).
Like-named read-outs stand apart in the source and are kept apart here.

Columns and labels:
[1] = assay type: biochemical; conditions: read-out: Km(ATP); 100 μM SPS
[2] = assay type: biochemical; conditions: read-out: Km(SPS); Src peptide substrate

B1: Lyn^SH2eng: Lyn Q509E/Q510E/Q511I three-domain construct with enhanced SH2 engagement (protein)
chain: QGDIVVALYPYDGIHPDDLSFKKGEKMKVLEEHGEWWKAKSLLTKKEGFIPSNYVAKLNTLETEEWFFKDITRKDAERQLLAPGNSAGAFLIRESETLKGSFSLSVRDFDPVHGDVIKHYKIRSLDNGGYYISPRITFPCISDMIKHYQKQADGLCRRLEKACISPKPQKPWDKDAWEIPRESIKLVKRLGAGQFGEVWMGYYNNSTKVAVKTLKPGTMSVQAFLEEANLMKTLQHDKLVRLYAVVTREEPIYIITEYMAKGSLLDFLKSDEGGKVLLPKLIDFSAQIAEGMAYIERKNYIHRDLRAANVLVSESLMCKIADFGLARVIEDNEYTAREGAKFPIKWTAPEAINFGCFTIKSDVWSFGILLYEIVTYGKIPYPGRTNADVMTALSQGYRMPRVENCPDELYDIMKMCWKEKAEERPTFDYLQSVLDDFYTATEGQYEEIP
modifications: left off: His tag, N-terminal, kept
B1 showed a Km [1] of 54 ± 5 µM and a Km [2] of 60 ± 10 µM.
